What was measured:
Experiment in all cases: Kd (EC50 corrected by depletion factor)
CPSF3 = target: T1, CPSF3 (UniProt Q9UKF6)
T1 sequence: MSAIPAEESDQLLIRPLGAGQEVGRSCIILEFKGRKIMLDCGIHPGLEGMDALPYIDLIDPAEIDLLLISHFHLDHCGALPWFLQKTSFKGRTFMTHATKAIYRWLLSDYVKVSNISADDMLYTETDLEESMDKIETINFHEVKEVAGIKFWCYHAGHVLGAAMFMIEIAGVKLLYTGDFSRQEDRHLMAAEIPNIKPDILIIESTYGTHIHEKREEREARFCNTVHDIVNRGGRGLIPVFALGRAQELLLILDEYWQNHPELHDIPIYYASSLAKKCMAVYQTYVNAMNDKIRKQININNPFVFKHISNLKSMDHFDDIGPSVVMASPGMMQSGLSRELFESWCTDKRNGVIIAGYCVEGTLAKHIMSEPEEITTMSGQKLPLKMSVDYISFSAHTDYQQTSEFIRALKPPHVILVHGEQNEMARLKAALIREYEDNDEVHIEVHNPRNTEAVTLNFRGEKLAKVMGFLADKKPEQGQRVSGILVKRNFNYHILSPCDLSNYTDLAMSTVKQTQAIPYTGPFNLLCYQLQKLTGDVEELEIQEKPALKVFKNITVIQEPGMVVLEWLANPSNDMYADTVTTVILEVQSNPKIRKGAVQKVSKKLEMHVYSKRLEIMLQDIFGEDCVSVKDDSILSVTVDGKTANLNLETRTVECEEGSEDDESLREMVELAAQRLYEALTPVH
Outline: (§1)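 Kd was calculated as EC50, taken from a four-parameter log-logistic fit, multiplied by a protein-dependent depletion factor. The assay used HEK293-FT lysate (2.5 mg protein/well) pre-incubated for 1 h at 4°C with free RNA oligos (0 nM to 30 μM), then incubated for 30 min at 4°C with the matching oligos bound through a 5′-amino-C6 linker to NHS-Sepharose beads. Bound proteins were measured by label-free LC-MS/MS and normalised to the control.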

FIP1L1 = target: T2, FIP1L1 (UniProt Q6UN15)
T2 sequence: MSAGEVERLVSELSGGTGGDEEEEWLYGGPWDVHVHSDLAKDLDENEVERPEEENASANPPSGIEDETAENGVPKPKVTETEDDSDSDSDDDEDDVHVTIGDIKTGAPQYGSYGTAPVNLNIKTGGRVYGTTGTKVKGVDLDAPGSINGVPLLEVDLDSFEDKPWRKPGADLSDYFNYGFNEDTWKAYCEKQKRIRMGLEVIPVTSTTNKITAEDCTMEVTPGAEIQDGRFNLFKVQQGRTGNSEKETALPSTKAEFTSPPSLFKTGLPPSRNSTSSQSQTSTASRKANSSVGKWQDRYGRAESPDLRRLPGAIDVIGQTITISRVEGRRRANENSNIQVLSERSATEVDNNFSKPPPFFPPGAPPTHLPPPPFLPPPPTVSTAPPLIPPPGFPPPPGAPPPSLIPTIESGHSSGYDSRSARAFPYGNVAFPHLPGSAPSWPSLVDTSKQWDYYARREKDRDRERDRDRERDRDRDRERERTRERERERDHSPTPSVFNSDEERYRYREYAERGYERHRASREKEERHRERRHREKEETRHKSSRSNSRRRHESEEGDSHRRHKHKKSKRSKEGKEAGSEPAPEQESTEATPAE
Outline: as §1

GPATCH3 = target: T3, GPATCH3 (UniProt Q96I76)
T3 sequence: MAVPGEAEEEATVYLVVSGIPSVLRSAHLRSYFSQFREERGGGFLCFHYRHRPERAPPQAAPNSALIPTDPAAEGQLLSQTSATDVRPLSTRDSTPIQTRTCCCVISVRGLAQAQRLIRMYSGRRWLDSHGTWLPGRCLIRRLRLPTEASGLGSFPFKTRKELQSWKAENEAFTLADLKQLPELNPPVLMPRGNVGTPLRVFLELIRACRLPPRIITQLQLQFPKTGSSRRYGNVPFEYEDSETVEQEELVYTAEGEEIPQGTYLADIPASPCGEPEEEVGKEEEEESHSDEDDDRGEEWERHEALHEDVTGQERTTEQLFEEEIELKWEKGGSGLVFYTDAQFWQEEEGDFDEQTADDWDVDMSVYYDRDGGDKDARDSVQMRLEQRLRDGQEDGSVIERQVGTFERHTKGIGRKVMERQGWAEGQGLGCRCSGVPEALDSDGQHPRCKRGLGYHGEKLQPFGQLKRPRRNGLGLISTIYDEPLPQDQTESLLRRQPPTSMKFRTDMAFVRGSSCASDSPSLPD
Outline: as §1

LSM2 = target: T4, LSM2 (UniProt Q9Y333)
T4 sequence: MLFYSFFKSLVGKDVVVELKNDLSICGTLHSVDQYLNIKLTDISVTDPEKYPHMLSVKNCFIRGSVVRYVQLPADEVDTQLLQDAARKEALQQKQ
Outline: as §1

ZFP36L2 = target: T5, ZFP36L2 (UniProt P47974)
T5 sequence: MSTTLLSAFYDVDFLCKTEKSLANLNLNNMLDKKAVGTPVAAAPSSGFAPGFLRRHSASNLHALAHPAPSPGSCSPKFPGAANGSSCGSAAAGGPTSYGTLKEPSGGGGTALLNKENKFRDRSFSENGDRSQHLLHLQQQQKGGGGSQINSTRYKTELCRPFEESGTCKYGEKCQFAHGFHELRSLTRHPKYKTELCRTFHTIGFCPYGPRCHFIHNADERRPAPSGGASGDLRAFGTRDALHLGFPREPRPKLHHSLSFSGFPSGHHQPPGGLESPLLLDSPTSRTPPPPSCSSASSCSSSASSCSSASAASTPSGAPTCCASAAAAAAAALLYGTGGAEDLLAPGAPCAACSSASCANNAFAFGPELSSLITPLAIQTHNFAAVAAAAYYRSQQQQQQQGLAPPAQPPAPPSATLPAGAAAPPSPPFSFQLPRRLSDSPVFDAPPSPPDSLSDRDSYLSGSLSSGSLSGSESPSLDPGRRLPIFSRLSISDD
Outline: as §1

## AAUAAA
CPSF3
  Kd: 5.97 nM
FIP1L1
  Kd: 8.24 nM
GPATCH3
  Kd: 196 nM
LSM2
  Kd: 52.7 nM
ZFP36L2
  Kd: 357 nM

## UAUUUAU
CPSF3
  Kd: 270 nM
FIP1L1
  Kd: 482 nM
GPATCH3
  Kd: 243 nM
LSM2
  Kd: 309 nM
ZFP36L2
  Kd: 11.1 nM

Source: the supplement of paper PMC6379048
